# Key:
# [1] = test system: Fc receptors of mast cells; settings: cited from earlier work; for blocking activity: reported by Bennich
# [2] = test system: FcER2 positive RPMI 8866 B cells; assay: Indirect immunofluorescence binding of rE peptides to RPMI 8866 B cells (FACScan); set-up: species or system human; settings: for % positive cells: RPMI 8866 B cells, indirect immunofluorescence, 0.1-200 μg/ml ligand, 40 min 4° C., mean ±S.D. of 9 experiments; for binding to FcER2 positive RPMI 8866 B cells (in words): further indirect immunofluorescence studies
# Protocol: RPMl 8866 cells were incubated with different concentrations of rE peptides and indirect immuno-fluorescence was performed.
# For indirect immunofluorescence the results of which are summarised in Table VII, 0.5×10^6 RPMI 8866 cells (>99% FcER2 positive) in staining buffer (RPMI 1640 - 2.5% fetal bovine serum, containing 0.01% azide) were incubated with various concentrations (0.1-200 μg/ml) of purified rE fragments or native IgE(PS) for 40 minutes at 4° C. After washing, the cells were incubated for 30 minutes at 4° C. with the appropriate fluorescein isothiocyanate (FITC)-conjugated anti-Fc mAB or with an affinity-purified goat anti-human IgE antibody (10 μg/ml). After extensive washing, the percentage of cells binding IgE or the rE fragments was evaluated by a FACScan (Becton Dickinson, Mountain View, Calif.).
Molecule,blocking activity [1],specific activity ([1]; reported),% positive cells [2],binding to FcER2 positive RPMI 8866 B cells (in words) [2]
Asp-Ser-Asn-Pro-Arg (DSNPR; printed: Asp-Ser-Asn-Pro-Arg),neither of the peptides Asp-Ser-Asp-Pro-Arg nor Asp-Ser-Asn-Pro-Arg has any blocking activity,–,–,–
"Asp-Ser-Asp-Pro-Arg (DSDPR; printed: Asp-Ser-Asp-Pro-Arg) [HEPP, Human Immunoglobulin E Polypeptide, pentapeptide from IgE heavy chain 330 to 334]",neither of the peptides Asp-Ser-Asp-Pro-Arg nor Asp-Ser-Asn-Pro-Arg has any blocking activity,low,–,–
"rE2-3: recombinant IgE peptide Asp 218-Pro 439 (CH2 and CH3) (protein, UniProt P01854 218-439, looked up, fragment) SAYLSRPSPFDLFIRKSPTITCLVVDLAPSKGTVNLTWSRASGKPVNHSTRKEEKQRNGTLTVTSTLPVGTRDWIEGETYQCRVTHPHLPRALMRSTTKTSGPRAAPEVYAFATPEWPGSRDKRTLACLIQNFMPEDISVQWLHNEVQLPDARHSTTQPRKTKGSGFFVFSRLEVTRAEWEQKDEFICRAVHEAASPSQTVQRAVSVNPGLAGGSAQSQRAP",–,–,3 ± 1%,no detectable binding
"rE2'-3': recombinant IgE peptide Gln 301-Arg 376 (protein, UniProt P01854 301-376, looked up, fragment) VTHPHLPRALMRSTTKTSGPRAAPEVYAFATPEWPGSRDKRTLACLIQNFMPEDISVQWLHNEVQLPDARHSTTQP",–,–,2 ± 1%,no detectable binding
"rE2: recombinant IgE peptide Asp 218-Val 336 (CH2) (protein, UniProt P01854 218-336, looked up, fragment) SAYLSRPSPFDLFIRKSPTITCLVVDLAPSKGTVNLTWSRASGKPVNHSTRKEEKQRNGTLTVTSTLPVGTRDWIEGETYQCRVTHPHLPRALMRSTTKTSGPRAAPEVYAFATPEWPG",–,–,2 ± 1%,no detectable binding

# Source: US5693758A, “Immunoglobulin E competitor” (501 Research Corporation Limited, priority 1987, dated 1997)
